# Data reported in IntAct's records for PubMed 21391237.
# B1: Transmembrane protein 43 (Homo sapiens), Q9BTV4 (parent)
# chain: MAANYSSTSTRREHVKVKTSSQPGFLERLSETSGGMFVGLMAFLLSFYLIFTNEGRALKTATSLAEGLSLVVSPDSIHSVAPENEGRLVHIIGALRTSKLLSDPNYGVHLPAVKLRRHVEMYQWVETEESREYTEDGQVKKETRYSYNTEWRSEIINSKNFDREIGHKNPSAMAVESFMATAPFVQIGRFFLSSGLIDKVDNFKSLSLSKLEDPHVDIIRRGDFFYHSENPKYPEVGDLRVSFSYAGLSGDDPDLGPAHVVTVIARQRGDQLVPFSTKSGDTLLLLHHGDFSAEEVFHRELRSNSMKTWGLRAAGWMAMFMGLNLMTRILYTLVDWFPVFRDLVNIGLKAFAFCVATSLTLLTVAAGWLFYRPLWALLIAGLALVPILVARTRVPAKKLE
# partner: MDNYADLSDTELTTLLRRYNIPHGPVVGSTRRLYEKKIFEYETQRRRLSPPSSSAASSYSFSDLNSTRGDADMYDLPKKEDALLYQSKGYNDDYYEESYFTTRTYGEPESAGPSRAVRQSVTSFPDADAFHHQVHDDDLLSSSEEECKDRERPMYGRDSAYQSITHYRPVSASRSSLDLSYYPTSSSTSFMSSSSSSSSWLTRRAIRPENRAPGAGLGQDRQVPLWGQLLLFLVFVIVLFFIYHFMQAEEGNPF
# B2: Transmembrane protein 43 (Homo sapiens), Q9BTV4 (parent)
# chain: B1 chain
# Variants of: B1
# Settings: with emd_human EMD
row,effect of a mutation on the interaction,Variant
1,with no effect,E85K
2,with no effect,I91V

# Variants of: B1
# Settings: with emd_human EMD
# Remark: another data set of the same source
row,effect of a mutation on the interaction,Variant
1,decreasing interaction strength,E85K
2,decreasing interaction strength,I91V

# Variants of: B2
# Settings: with sun2_human SUN2, Q9UH99
# Chain of sun2_human SUN2, Q9UH99 (Q9UH99 whole entry): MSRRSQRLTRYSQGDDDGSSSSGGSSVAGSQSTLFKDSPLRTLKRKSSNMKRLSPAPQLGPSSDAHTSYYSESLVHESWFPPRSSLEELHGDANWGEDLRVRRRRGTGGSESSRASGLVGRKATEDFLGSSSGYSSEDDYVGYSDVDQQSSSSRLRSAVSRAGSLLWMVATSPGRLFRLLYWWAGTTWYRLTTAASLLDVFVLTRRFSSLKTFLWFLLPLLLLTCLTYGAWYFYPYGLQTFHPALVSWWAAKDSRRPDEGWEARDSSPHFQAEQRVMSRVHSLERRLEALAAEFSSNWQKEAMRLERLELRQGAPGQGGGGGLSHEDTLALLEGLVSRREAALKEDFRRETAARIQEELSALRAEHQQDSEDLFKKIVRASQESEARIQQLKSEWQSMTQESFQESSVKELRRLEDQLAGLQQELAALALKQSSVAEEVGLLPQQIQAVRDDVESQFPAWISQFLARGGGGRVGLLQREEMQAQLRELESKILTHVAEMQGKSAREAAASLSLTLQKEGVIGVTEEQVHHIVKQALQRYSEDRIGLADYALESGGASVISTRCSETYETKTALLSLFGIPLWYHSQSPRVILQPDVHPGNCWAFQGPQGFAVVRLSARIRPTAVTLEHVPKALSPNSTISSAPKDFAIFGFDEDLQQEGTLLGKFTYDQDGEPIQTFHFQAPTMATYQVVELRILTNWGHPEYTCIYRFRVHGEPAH
row,effect of a mutation on the interaction,Variant
1,decreasing interaction strength,I91V
2,decreasing interaction strength,E85K
